Here are results for one substance from PMC3521685.

The target of this assay is Myc-Sharp-1-bHLH (UniProt Q99PV5).
UniProt Q99PV5, sequence (Q99PV5 44-99): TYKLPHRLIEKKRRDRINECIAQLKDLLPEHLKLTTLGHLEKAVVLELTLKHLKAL

Substance “FLAG-G9a (full-length G9a) (from UniProt Q9Z148 1-1263) (enzyme)” came in with an inhibition of MyoD activity (pMyog-Luc reporter) by Sharp-1-bHLH of 50%.
